Experimental data published in patent US20100209425A1.

Key:
[1] = target: hen-egg lysozyme (HEL) from chicken egg white (chicken) (UniProt P00698); assay: flow cytometry titration of biotinylated HEL on yeast-displayed D1.3 scFv; PBS with BSA
[2] = target: hen-egg lysozyme (HEL) from chicken egg white (chicken) (UniProt P00698); assay: yeast display immunoprecipitation with 5x10^7 yeast from RBE4 lysate holding 34 nM HEL, gel densitometry
[3] = target: hen-egg lysozyme (HEL) from chicken egg white (chicken) (UniProt P00698); assay: flow cytometry titration of biotinylated HEL on yeast-displayed D1.3 scFv; PBS with Triton X-100
[4] = target: hen-egg lysozyme (HEL) from chicken egg white (chicken) (UniProt P00698); assay: flow cytometry titration of biotinylated HEL on yeast-displayed D1.3 scFv; PBS with n-octyl-beta-D-glucopyranoside

Sequence of UniProt P00698 (P00698 19-147): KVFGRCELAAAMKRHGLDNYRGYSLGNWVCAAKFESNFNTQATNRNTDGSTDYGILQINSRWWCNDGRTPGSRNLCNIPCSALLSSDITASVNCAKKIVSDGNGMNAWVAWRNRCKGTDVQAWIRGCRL

## anti-hen egg lysozyme D1.3 scFv displayed on yeast
[1]
  Kd: 1.07 nM
[2]
  percent of the theoretical immunoprecipitation yield: 70%
[3]
  Kd: 0.488 nM
[4]
  Kd: 2.61 nM
